Experiment [1] addresses αMβ heterodimer of HsIDH3 (α-Q139A with β) (human) (UniProt P50213). As to the kind of experiment: SEC-MALS; high concentration (10 mg/ml); Superdex 200 10/300 GL, 24 °C, 10 mM Hepes pH 7.4, 200 mM NaCl, 5 mM β-ME; N counts the units (heterodimers or heterotetramers) in the oligomer.
The target is the same in experiment [2]. Nature of the experiment: SEC-MALS; low concentration (1 mg/ml); Superdex 200 10/300 GL, 24 °C, 10 mM Hepes pH 7.4, 200 mM NaCl, 5 mM β-ME; N counts the units (heterodimers or heterotetramers) in the oligomer.
In experiment [3] the target is αMβαMγ heterotetramer of HsIDH3 (α-Q139A in both heterodimers) (human) (UniProt P50213). Nature of the experiment: SEC-MALS; high concentration (10 mg/ml); Superdex 200 10/300 GL, 24 °C, 10 mM Hepes pH 7.4, 200 mM NaCl, 5 mM β-ME; N counts the units (heterodimers or heterotetramers) in the oligomer.
Experiment [4] shares this target. As to the kind of experiment: SEC-MALS; low concentration (1 mg/ml); Superdex 200 10/300 GL, 24 °C, 10 mM Hepes pH 7.4, 200 mM NaCl, 5 mM β-ME; N counts the units (heterodimers or heterotetramers) in the oligomer.

A word on the stoichiometry N: it is the number of molecules, sites or subunits per partner or assembly.

“αMβ heterodimer of HsIDH3 (α-Q139A with β) (from UniProt P50213 28-366; O43837 35-360) (complex)”: the stoichiometry N in experiment [1] and in experiment [2] was 2 throughout.
Consider “αMβαMγ heterotetramer of HsIDH3 (α-Q139A in both heterodimers) (from UniProt P50213 28-366; O43837 35-360; P51553 40-393) (complex)”, for which the stoichiometry N in experiment [3] and in experiment [4] was 2 in each case.

The values are drawn from article PMC9731866, “Structures of a constitutively active mutant of human IDH3 reveal new insights into the mechanisms of allosteric activation and the catalytic reaction” (The Journal of Biological Chemistry, 2022).
